Data taken from patent US20210324359A1, “USE OF GRAM-NEGATIVE LYSIN-ANTIMICROBIAL PEPTIDE (AMP) POLYPEPTIDE CONSTRUCTS IN TREATING ENDOCARDITIS” (priority 2020, published 2021).
“And” between values parts separate entries of the source, which are not always exact repeats. Equal values may be shown once.

How the values were obtained:
[1] = tested on: Pseudomonas aeruginosa strain CFS-1292 (meropenem resistant); conditions: strain CFS-1292; no added cations
Protocol: The activity of selected GN lysins and constructs in the presence of divalent cations was evaluated, and the impact of divalent cations at physiological concentrations was examined in the MIC assay format.

[2] = tested on: P. aeruginosa strain WC-453; test: Time-kill assay in HEPES or CAA with 25% human serum (Tables 7, 8); type: cell-based, Pseudomonas aeruginosa
Protocol: Exponential phase bacteria were then pelleted and resuspended in 1/5 culture volume of 25 mM HEPES, pH 7.4 before a final adjustment to an optical density corresponding to a McFarland value of 0.5. […] All treatments were incubated at 37° C. with aeration. At time points before the addition of lysin (or buffer control) and at 1 hour and 3 hours intervals thereafter, culture samples were removed for quantitative plating on CAA agar plates.

[3] = tested on: P. aeruginosa isolates; test: MIC against a range of isolates in CAA + […] human serum (Table 11); type: cell-based, Pseudomonas aeruginosa
[4] = tested on: Pseudomonas aeruginosa biofilm; test: MBEC in CAA supplemented with […] human serum (Table 14); type: cell-based
Protocol: Biofilms are then washed and treated with e.g., a 2-fold dilution series of the lysin in TSBg at e.g., 37° C. for 24 hours. After treatment, wells are washed, air-dried at e.g., 37° C. and stained with e.g., 0.05% crystal violet for 10 minutes.
Materials and methods: MICs were determined by broth microdilution in media supplemented with human serum and pulmonary surfactant ([…]®; Myoderm Clinical Supplies). Minimal biofilm eradicating concentrations (MBECs) were determined using standard methods. […] Fluorescence microscopy was performed after LIVE/DEAD staining (ThermoFisher) and TEM was performed.

[5] = tested on: outer membrane of P. aeruginosa (CFS 1292); test: N-phenyl-1-napthylamine (NPN) uptake assay, outer membrane destabilization (Table 15); type: cell-based, Pseudomonas aeruginosa; conditions: NPN fluorescence, buffer = 100, lysin 100 μg/well
Protocol: The ability of gram-negative lysins to destabilize the outer membrane of P. aeruginosa was evaluated through the use of an N-phenyl-1-napthylamine (NPN) uptake assay. […] NPN was added to a final concentration of […]. […] Changes in fluorescence were recorded (excitation 1=350 nm; emission 1=420 nm) over two hours.

[6] = tested on: P. aeruginosa strains; test: Checkerboard synergy with meropenem in 25% CAA and […] human serum (Table 16); type: cell-based, Pseudomonas aeruginosa; conditions: for FICI value (Run #1), with meropenem / FICI value (Run #2), with meropenem: 25% CAA and […] human serum
[7] = tested on: carbapenem-resistant P. aeruginosa strains; test: Resensitization of carbapenem-resistant strains, combinations with imipenem or meropenem (Tables 18-22); type: cell-based, Pseudomonas aeruginosa

B1: GN121: variant lysin (SEQ ID NO: 175), also disclosed in WO 2019/118632 (protein)
chain: MTYTLSKRSLDNLKGVHPDLVAVVHRAIQLTPVDFAVIEGLRSVSRQKELVAAGASKTMNSRHLTGHAVDLAAYVNGIRWDWPLYDAIAVAVKAAAKELGVAIVWGGDWTTFKDGPHFELDRSKYRRKKTRKRLKKIGKVLKWI
[1]
  MIC in 25% CAA: 1 to 2 µg/mL
[2]; 10 μg/mL, enumerated lysins in CAA/HuS, general statement for HEPES and CAA/HuS
  bactericidal activity (CFU decrease of 3-Log10, 3 hours after the addition of lysin): bactericidal activity
[2]; 25 mM HEPES pH 7.4, lysin 10 μg/ml, 1 hr, WC-453
  HEPES (Log10 CFU/mL), 1 hr: <3.7 Log10 CFU/mL
[2]; 25 mM HEPES pH 7.4, lysin 10 μg/ml, 3 hr, WC-453
  HEPES (Log10 CFU/mL), 3 hr: <3.7 Log10 CFU/mL
[2]; CAA + 25% human serum, lysin 10 μg/ml, 1 hr, WC-453
  CAA/HuS (Log10 CFU/mL), 1 hr: 7.6 Log10 CFU/mL
[2]; CAA + 25% human serum, lysin 10 μg/ml, 3 hr, WC-453
  CAA/HuS (Log10 CFU/mL), 3 hr: <3.7 Log10 CFU/mL
[3]; Tables 11 and 12
  activity against P. aeruginosa isolates in human serum or SURVANTA: active against a variety of P. aeruginosa isolates
[3]; strain CFS 1109 (ATCC 17646)
  MIC, CAA + […] Human Serum: 0.5 µg/mL
[3]; strain CFS 1292
  MIC, CAA + […] Human Serum: 1 µg/mL
[3]; strain CFS1539 (PA1)
  MIC, CAA + […] Human Serum: 0.5 µg/mL
[3]; strain CFS 1540 (PA2)
  MIC, CAA + […] Human Serum: 0.5 µg/mL
[3]; strain CFS 1541 (PA3)
  MIC, CAA + […] Human Serum: 0.5 µg/mL
[3]; strain CFS 1557 (PA19)
  MIC, CAA + […] Human Serum: 2 µg/mL
[3]; strain CFS 1558 (PA20)
  MIC, CAA + […] Human Serum: 0.5 µg/mL
[3]; strain CFS 1559 (PA21)
  MIC, CAA + […] Human Serum: 1 µg/mL
[3]; strain CFS 1560 (PA22)
  MIC, CAA + […] Human Serum: 1 µg/mL
[3]; strain CFS 1561 (PA23)
  MIC, CAA + […] Human Serum: 1 µg/mL
[3]; strain CFS 1562 (PA24)
  MIC, CAA + […] Human Serum: 1 µg/mL
[3]; strain CFS 1596 (PA26)
  MIC, CAA + […] Human Serum: 0.5 µg/mL
[3]; strain CFS 1597 (PA27)
  MIC, CAA + […] Human Serum: 0.5 µg/mL
[3]; strain CFS 1669 (PA41)
  MIC, CAA + […] Human Serum: 1 µg/mL
[3]; strain CFS 1674 (PA46)
  MIC, CAA + […] Human Serum: 0.5 µg/mL
[3]; strain CFS 1675 (PA47)
  MIC, CAA + […] Human Serum: 0.5 µg/mL
[3]; strain CFS 1766 (ATCC 27853)
  MIC, CAA + […] Human Serum: 2 µg/mL
[4]
  MBEC in CAA supplemented with […] human serum: 0.25 µg/mL
[5]; 5 minutes
  % RFU: 370 % RFU
[5]; 10 minutes
  % RFU: 500 % RFU
[5]; 20 minutes
  % RFU: 528 % RFU
[5]; 40 minutes
  % RFU: 530 % RFU
[5]; 60 minutes
  % RFU: 565 % RFU
[5]; 100 minutes
  % RFU: 557 % RFU
[6]; FICI less than or equal to 0.5 = potent synergy
  synergy with meropenem: exhibited synergy with meropenem
[6]; strain CFS 1292
  FICI value (Run #1), with meropenem: 0.25
  FICI value (Run #2), with meropenem: 0.292
[6]; strain CFS 1557 (PA19)
  FICI value (Run #1), with meropenem: 0.375
  FICI value (Run #2), with meropenem: 0.427
[6]; strain CFS 1558 (PA20)
  FICI value (Run #1), with meropenem: 0.125
  FICI value (Run #2), with meropenem: 0.156
[6]; strain CFS 1559 (PA21)
  FICI value (Run #2), with meropenem: 0.229
[6]; strain CFS 1560 (PA22)
  FICI value (Run #2), with meropenem: 0.313
[6]; strain CFS 1561 (PA23)
  FICI value (Run #2), with meropenem: 0.198
[6]; strain CFS 1562 (PA24)
  FICI value (Run #2), with meropenem: 0.214
[6]; strain CFS 1766 (ATCC 27853)
  FICI value (Run #2), with meropenem: 0.229
[7]; imipenem (IPM) and meropenem (MEM), carbapenem-resistant isolates
  resensitization to carbapenems in synergistic combinations: reductions of IPM and MEM MICS to below breakpoint values
[7]; in combination with imipenem, isolate PA19
  lysin MIC, Combination: 0.125 µg/mL
[7]; in combination with imipenem, isolate PA20
  lysin MIC, Combination: 0.25 µg/mL
[7]; in combination with imipenem, isolate PA21
  lysin MIC, Combination: 0.125 µg/mL
[7]; in combination with imipenem, isolate PA22
  lysin MIC, Combination: 0.25 µg/mL
[7]; in combination with imipenem, isolate PA23
  lysin MIC, Combination: 0.25 µg/mL
[7]; in combination with imipenem, isolate PA24
  lysin MIC, Combination: 0.125 µg/mL
[7]; in combination with meropenem, isolate PA19
  lysin MIC, Combination: 0.5 µg/mL
[7]; in combination with meropenem, isolate PA20
  lysin MIC, Combination: 0.5 µg/mL
[7]; in combination with meropenem, isolate PA22
  lysin MIC, Combination: 0.25 µg/mL
[7]; in combination with meropenem, isolate PA23
  lysin MIC, Combination: 0.5 µg/mL
[7]; in combination with meropenem, isolate WC-452
  lysin MIC, Combination: 0.06 µg/mL
[7]; isolate PA19
  MIC, Alone: 1 µg/mL and 2 µg/mL
[7]; isolate PA20
  MIC, Alone: 1 µg/mL and 2 µg/mL
[7]; isolate PA21
  MIC, Alone: 1 µg/mL
[7]; isolate PA22
  MIC, Alone: 2 µg/mL and 1 µg/mL
[7]; isolate PA23
  MIC, Alone: 1 µg/mL and 2 µg/mL
[7]; isolate PA24
  MIC, Alone: 1 µg/mL
[7]; isolate WC-452
  MIC, Alone: 1 µg/mL
[7]; lysin + imipenem, isolate PA19
  FICI: 0.155
[7]; lysin + imipenem, isolate PA20
  FICI: 0.265
[7]; lysin + imipenem, isolate PA21
  FICI: 0.155
[7]; lysin + imipenem, isolate PA22
  FICI: 0.188
[7]; lysin + imipenem, isolate PA23
  FICI: 0.257
[7]; lysin + imipenem, isolate PA24
  FICI: 0.155
[7]; lysin + meropenem, isolate PA19
  FICI: 0.281
[7]; lysin + meropenem, isolate PA20
  FICI: 0.313
[7]; lysin + meropenem, isolate PA21
  FICI: 0.188
[7]; lysin + meropenem, isolate PA22
  FICI: 0.313
[7]; lysin + meropenem, isolate PA23
  FICI: 0.375
[7]; lysin + meropenem, isolate PA24
  FICI: 0.156
[7]; lysin + meropenem, isolate WC-452
  FICI: 0.123
